T1: biotinylated avi-tagged canine PD-1 soluble protein (canine, biotin)
T1 chain: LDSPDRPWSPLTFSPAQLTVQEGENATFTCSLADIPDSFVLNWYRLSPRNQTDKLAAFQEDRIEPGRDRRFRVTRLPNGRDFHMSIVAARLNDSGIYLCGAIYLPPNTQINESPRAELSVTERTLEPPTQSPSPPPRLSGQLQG


Columns and labels:
[1] = target: T1, biotinylated avi-tagged canine PD-1 …; experiment: ELISA
[2] = target: canine PD-1 expressed on the surface of KTδ32 cells (Canis lupus familiaris, UniProt A0A090BAM7); experiment: flow cytometry on cells
[3] = target: recombinant canine PD-1 protein, His tag (Canis lupus familiaris, UniProt A0A090BAM7); experiment: SPR

| binding result [1] | binding result [2] | binding half-life [3] [h] | koff [3] [s⁻¹] | kon [3] [M⁻¹ s⁻¹] | Binder |
| --- | --- | --- | --- | --- | --- |
| binds | binds | – | – | – | P3C6 soluble scFv (scFv, V domains shown) VH: EVQLVQSGGDLVKPGGSLRLSCMASGFTFSKYGMSWVRQSPGKGLQWVADIAANGGTYYTDAVKGRFTISRDNAKNALYLQMDDLRAEDTAVYYCARWGGAPFDYWGQGTLVTVSS VL: EIVMTQSPASLSLSQEEKVTITCRASQSVSSYLAWYQQKPGQAPKLLIYGTSNRATGVPSRFSGSGSGTDFSFTISSLEPEDVAVYYCQQGLQYPITFGKGTHLEIK |
| – | binds | – | – | – | P3C6mut3.2 full-length canine IgGD (antibody, V domains shown) VH: EVQLVQSGGDVVKPGGSLRLSCVASGFTFSKYGMSWVRQSPGKGLQWVADIAANGGTYYTDAVKGRFTISRDNAKNTLYLQMNSLRAEDTAVYYCARWGGAPFDYWGQGTLVTVSS VL: EIVMTQSPASLSLSQEEKVTITCRASQSVSSYLAWYQQKPGQAPKLLIYGTSNRATGVPSRFSGSGSGTDFSFTISSLEPEDVAVYYCQQGLQYPITFGKGTHLEIK |
| – | – | 1.35 | 0.000143 | 131000 | P3C6mut3.1 full-length canine IgGD (antibody, V domains shown) VH: EVQLVQSGGDVVKPGGSLRLSCMASGFTFSKYGMSWVRQSPGKGLQWVADIAANGGTYYTDAVKGRFTISRDNAKNTLYLQMNSLRAEDTAVYYCARWGGAPFDYWGQGTLVTVSS VL: EIVMTQSPASLSLSQEEKVTITCRASQSVSSYLAWYQQKPGQAPKLLIYGTSNRATGVPSRFSGSGSGTDFSFTISSLEPEDVAVYYCQQGLQYPITFGKGTHLEIK |
| binds | – | – | – | – | P4B1 soluble scFv (scFv, V domains shown) VH: EVQLVQSGGDVVKPGGSLRLSCVASGFTFNTYGMNWVRQSPGKGLQWVAAIANSGSTYYADAVRGRFTISRDNAKNTLYLQMNSLRAEDAAIYYCASGIWGDWFYYWGQGTLVTVSS VL: SSVLTQPPSVSVSLGQTATISCSGESLTKYYAQWFQQKPGQAPMLVIYKDTERPSGIPDRFSGSSSGNTHTLTISGARAEDEADYYCESAVSADAVVFGGGTHLTVL |

Source: publication PMC10793675 (mAbs, 2023)
